This note sets out measurements from the supplement of paper PMC9170038.

The subject of data set [1] is MS2 coat protein. The experiment in a line: apparent KD of MS2 coat protein, switch ON state; designed switch direction (-1 OFF switch, 1 ON switch): 1; higher = weaker reporter binding. To be noted: FMN input: 0 or 200 uM; Eterna round: R93 (includes R88 designs). In short, it runs like this: (§1)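 With or without constant ligand, designed RNA switches in 100 mM Tris-HCl pH 7.5, 80 mM KCl and 4 mM MgCl2 were titrated with SNAP-549-labelled MS2 coat protein. Concentrations went up in twofold steps from 0.7 or 1.5 nM to 3 µM. The switches had been transcribed on-chip from Illumina sequencing clusters, and apparent KD is the per-design median of normalised cluster binding-curve fits.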

Data set [2] relates to MS2 coat protein. The experiment in a line: apparent KD of MS2 coat protein, switch OFF state (with FMN for OFF switches, without FMN for ON switches); designed switch direction (-1 OFF switch, 1 ON switch): 1; higher = weaker reporter binding. To be noted: FMN input: 0 or 200 uM; Eterna round: R93 (includes R88 designs). In short, it runs like this: as §1

For the sequence “AAGAAACAUGAGGAUCACCCAUGUGAGAUAAACACAGGAUAUGCAAAAGAAAGAAAGAAAGCAGAAGGGUGAAGAA [Mat - Same State 1 - Tesla mod - 51]”, the figures for the “apparent KD of MS2 coat protein” value in data set [1] and in data set [2] were 21.6 nM and 129 nM, respectively.

With “AAGAAACAUGAGGAUCACCCAUGUGAGAUAAACACAGGAUAUGCGAAAAGAAAUAAAGAAGCAGAAGGGUGAAGAA [Mat - Same State 1 - Tesla mod - 71]”, the “apparent KD of MS2 coat protein” value in data set [1] turned out to be 20.5 nM; in data set [2], 94.1 nM.

For the sequence “AAGAAAGAAACAUAGGAUAUCAAGAAUAUAACAUGAGGAUCACCCAUGUAAAUACGAAAGUAUAAUGAGAAGGAUGGAUGAUCUUC [Mat - Mod of Meechl]”, the “apparent KD of MS2 coat protein” value in data set [1] is 24.3 nM; in data set [2], 34.5 nM.

As for “AAGAAAGAAACGCAGGAUAUGCAAAACAAAACAUGAGGAUCACCCAUGUCUUACUUACAAACAAAGCAGAAGGGCGAAAGAAAGAA [Same State 2 B]”, the “apparent KD of MS2 coat protein” value in data set [1] stood at 16.4 nM; in data set [2], 20 nM.

On to “AAGAAAGAAACGUAGGAUAUCAAGAAUAUAACAUGAGGAUCACCCAUGUAAAUACGAAAGUAUAAUGAGAAGGAUGGAUGAUCUUC [Mod of Mat of Meechl]”, for which the “apparent KD of MS2 coat protein” value in data set [1] was 22.7 nM; in data set [2], 32.8 nM.

Consider “AAGCAACAUGAGGAUCACCCAUGUAGCAGGGUCAGAGGAUAUUUGAUCUUGGUAAGGGUUAAAGAAGGUUGAUAAA [Ceralete]”, for which the results for the “apparent KD of MS2 coat protein” value in data set [1] and in data set [2] were 159 nM and 91.1 nM, respectively.

Consider “AAUACACAUGGUCAGGAUAUCGCAGCUAGGACAUGAGGAUCACCCAUGUAAUAAGUAAAAGUAAAUGAGAAGGGACAGGGUGACC [JR_SS002_Sub405]”, for which the “apparent KD of MS2 coat protein” value turned out to be 520 nM in data set [1] and 206 nM in data set [2].

With “AAUAUAUUAAGUGAGGAUAUCAAGAAAAAAACAUGAGGAUCACCCAUGUGGGAAACAUGGUAGGGUGAGAAGGUACUUAAUAUAU [Samwise Clockwise 21 - Jieux - Same State 2]”, the entries for the “apparent KD of MS2 coat protein” value in data set [1] and in data set [2] were 228 nM and 691 nM, respectively.

Regarding “AAUAUAUUAAGUGAGGAUAUCAUAGGAAAAACAUGAGGAUCACCCAUGUGGGAAACCUGGUCGGGUGAGAAGGUGCUUAAUAUAU [Samwise Clockwise 32 - Jieux - Same State 2]”, the results for the “apparent KD of MS2 coat protein” value in data set [1] and in data set [2] were 50.6 nM and 235 nM, respectively.

Consider “AAUCCAAAUAGUUAGGAUAUGGGAAUUAAGACAUGAGGAUCACCCAUGUAAUUAAAACAAGUUAACCAGAAGGGACAGGGUGAAA [JR_SS002_Sub207]”, for which the “apparent KD of MS2 coat protein” value was 160 nM in data set [1] and 112 nM in data set [2].

Regarding “ACCCGCAGCCGUCAGGAUAUGUUCGCGUCAACAUGAGGAUCACCCAUGUGUGACAAGAAGUACACGCAGAAGGGAUCAAUGCGGG [Bienri]”, the “apparent KD of MS2 coat protein” value in data set [1] amounted to 13.7 nM; in data set [2], 16.4 nM.

In the case of “AGAAAACAUGAGGAUCACCCAUGUAGAAAUAUGGGAGGAUAUACAAAGACGAAAGUCAAAGUAGAAGGCCUAAAGA [Mat - Same State 1 - Eli mod - 33]”, the results for the “apparent KD of MS2 coat protein” value in data set [1] and in data set [2] were 19 nM and 71.9 nM, respectively.

On to “AGAAAACAUGAGGAUCACCCAUGUAGAAAUAUGGGAGGAUAUACAAAGACGAAAGUCGAGGUAGAAGGCCUAAAGA [Mat - Same State 1 - Meechl mod - D122]”, for which the “apparent KD of MS2 coat protein” value worked out at 21.7 nM in data set [1] and 103 nM in data set [2].

With “AGAAAACAUGAGGAUCACCCAUGUAGAAAUAUGGGAGGAUAUACAAGGACGAAAGUCAAGGUAGAAGGCCUAAAGA [Mat - Same State 1 - Meechl mod - D127]”, the “apparent KD of MS2 coat protein” value worked out at 22.8 nM in data set [1] and 88.4 nM in data set [2].

Regarding “AGAAAACAUGAGGAUCACCCAUGUAGAAAUAUGGGAGGAUAUACGAGGACGAAAGUCAAAGUAGAAGGCCUAAAGA [Mat - Same State 1 - Meechl mod - D125]”, the “apparent KD of MS2 coat protein” value in data set [1] worked out at 21 nM; in data set [2], 71.2 nM.

In the case of “AGAAAACAUGAGGAUCACCCAUGUGACAAUAUGGGAGGAUAUACGAACACGAAAGUCGAAGUAGAAGGCCUAAAGA [Garnet 53]”, the “apparent KD of MS2 coat protein” value in data set [1] came out at 26.3 nM; in data set [2], 75.7 nM.

For the sequence “AGAAAUAAAACACAGGAUAUGAAAAAGAAAACAUGAGGAUCACCCAUGUAAAAGAAAAAUAAAAAUCAGAAGGGUGAAAAUAAAG [Put G segment last in JL design (80%)]”, the “apparent KD of MS2 coat protein” value in data set [1] turned out to be 59 nM; in data set [2], 205 nM.

Regarding “AGAAAUAAAAGAGAGGAUAUCCAAAAGAAAACAUGAGGAUCACCCAUGUGAAAGAAAAGAAAAUGGGAGAAGGCUCAAAAUAAGA [Topaz 18]”, the “apparent KD of MS2 coat protein” value in data set [1] was determined as 22.5 nM; in data set [2], 55.4 nM.

With “AGAAAUAAAGCUGAGGAUAUGGGAAAAUUCACAUGAGGAUCACCCAUGUAAAAGAAAAUAAAAAACCAGAAGGCAGCAAAUAAGA [Designing denovo 6]”, the “apparent KD of MS2 coat protein” value in data set [1] was determined as 27.6 nM; in data set [2], 49.8 nM.

On to “AGACAUAAAAGAGAGGAUAUCCAAAAGAAAACAUGAGGAUCACCCAUGUAAAAGAAAAUAAAAUGGGAGAAGGCUCACAUACAGA [Topaz 35]”, for which the “apparent KD of MS2 coat protein” value in data set [1] came out at 19 nM; in data set [2], 50.4 nM.

As for “AGACAUAACAGAGAGGAUAUCCAAUAGAAAACAUGAGGAUCACCCAUGUGAAAGAAAAUAAAAUGGGAGAAGGCUCACAUACAGA [Topaz 39]”, the “apparent KD of MS2 coat protein” value in data set [1] is 5.57 nM; in data set [2], 23 nM.

On to “AGCACGUGAUUGGAGGAUAUGUAGUAAGCAACAUGAGGAUCACCCAUGUCUGAGGCUGAAAACCAGCAGAAGGCCGAUACAACCA [SS2-1.6]”, for which the “apparent KD of MS2 coat protein” value stood at 15.3 nM in data set [1] and 22.7 nM in data set [2].

“AGGAAACAUGAGGAUCACCCAUGUAAAAAUAACACAGGAUAUGGAAACACGAAAGUGAAACCAGAAGGGUGAAAAG [77%, Mat - Mod of Eli, 16]”: the “apparent KD of MS2 coat protein” value in data set [1] is 17.8 nM; in data set [2], 26.1 nM.

As for “AGGAAACAUGAGGAUCACCCAUGUGUAAAAAAUACAGGAUAUGGAAACACGAAAGUGAAACCAGAAGGGUAAAAAA [77%, Mat - Mod of Eli, 31]”, the figures for the “apparent KD of MS2 coat protein” value in data set [1] and in data set [2] were 13.4 nM and 19 nM, respectively.

With “AGGAGACAUGAGGAUCACCCAUGUGAGAAGAGGCGAGGAUAUCGAAAGAAAGAAGAGAAACGAGAAGGCGCGAGAU [salish99-SS1-021]”, the figures for the “apparent KD of MS2 coat protein” value in data set [1] and in data set [2] were 25.1 nM and 38.7 nM, respectively.

In the case of “AUAAAACAUGAGGAUCACCCAUGUAAUAAGAACCGAGGAUAUGGAAAUAAUAAUAAUAAACCAGAAGGUGGUGAUC [Meechl MS2 SS1]”, the “apparent KD of MS2 coat protein” value was 110 nM in data set [1] and 105 nM in data set [2].

Turning to “AUAAAAUAAAGUCAGGAUAUCCAUAAUAAAACAUGAGGAUCACCCAUGUUAAAAAAAAGAUCAUGGGAGAAGGGACAAAAUAAAU [SS2 M 33]”, the results for the “apparent KD of MS2 coat protein” value in data set [1] and in data set [2] were 28.6 nM and 57.6 nM, respectively.

As to “AUAACACAUGAGGAUCACCCAUGUAGAAACAAGUCAGGAUAUGCAACCUCAUGAAAUAAAGCAGAAGGGACAAUAA [SS 1 Tesla 4]”, the “apparent KD of MS2 coat protein” value in data set [1] worked out at 26.4 nM; in data set [2], 88 nM.

As to “AUAAUAUUAAGCUAGGAUAUACUAAAGUAAACAUGAGGAUCACCCAUGUAAAAAAAAAAACUCAUGUAGAAGGAGCAUAAAUAAA [moonwalk 9]”, the “apparent KD of MS2 coat protein” value in data set [1] was 12.2 nM; in data set [2], 15 nM.
